Assay results from the DeepSol protein solubility set.

test: soluble on expression in E. coli; label from the status in PepcDB or PDB records

Sequence | soluble on expression in E. coli
MSWVQLAGHTGSFKAAGTSGLILKRCSEPERYCLARLMADALRGCVPAFHGVVERDGESYLQLQDLLDGFDGPCVLDCKMGVRTYLEEELTKARERPKLRKDMYKKMLAVDPEAPTEEEHAQRAVTKPRYMQWREGISSSTTLGFRIEGIKKADGSCSTDFKTTRSREQVLRVFEEFVQGDEEVLRRYLNRLQQIRDTLEVSEFFRRHEVIGSSLLFVHDHCHRAGVWLIDFGKTTPLPDGQILDHRRPWEEGNREDGYLLGLDNLIGILASLAER | soluble
THANIQGLVKHVDYMAFSDQDTFLSVSNYAFDAFTFDFYASMLNAARLIIADEHTLLDTERLTDLILQENVNVMFATTALFNLLTDAGEDWMKGLRCILFGGERASVPHVRKALRIMGPGKLINCYGPTEGTVFATAHVVHDLPDSISSLPIGKPISN | not soluble
MGSDKIHHHHHHAQRIEELPAVPLQIGYEKTLHLIFPTEVKYYSIGGDYVIGEKVGNCPEIIRLKAAEENFPGETTLSVVTADTKFYSYAISYNAHPVESYVRVDGQAPAPHTLPVGKDRQMFLIFPAGITYVDYGSTNVEVEKAEGVDNILAVKATGEFTEDTNISAVVEGGKFYTFNLHYAPFPERFSFVIDKEKTQRVAILDERERSSEQKERIRQAISKRIPLDLGLKDKNAGMEFEVGNIFIDGDILLLRMTLTNRTQIGYTTDFMRFYIQDAKIHKKTAVQQIEQNILFAFDYPEEIPAHESRTFTVAMNKFTIPDKKRLIIEIQERNGGRHFLYKLKNKSLLGAEEVFRSLQEQKTEDEADRILRRISR | not soluble
MIKVDQHYFELIENYRECFNEEQFIARYSDILDKYDYIVGDYGYDQLRLKGFYKDSNKKAEMSKRFSNIQDYIFEYCNFGCPYFVLRHLSKQEVKKLIEEVHPSDVIDDDNKLQDVKIKPTIQDTEHLEHHHHHH | not soluble
MGSDKIHHHHHHMYKTYREEERKSVDRGIFKEVPLPCAFLDEVALDRNIQLIIELSGNKKIRIASKSLRSVPVMQKILAANDRFQGIMCFSPREVLFLIEQGFNDLLLGYPAYDDRALHEISLLTKQGLIITCMVDCEDHIVYLEKIAEKSKGCFRVCLDIDMSSRFLNFHFGVKRSPVRDVQGALKIVKRLKESSFLILDGVMGYEAQIAGVGDHIPNQRVKSKVISYLKKKSVLEVKARRGHIVKEIQNLGIELRFVNGGGTGSIKTTEQDHSVSEITIGSAFYAPKLFDYYKEVQLQPAVGFALPVVRKPAPTIYTCLGGGYIASGAIGKDKEPEIWRPNGAKLLALEGAGEVQTPIFYNGEERVEIGDSILFRHSKAGELCERFPFLYRVKEGEIVGEYSTYRGDGQCFL | not soluble
SNAMKIAVINGGTRSGGNTDVLAEKAVQGFDAEHIYLQKYPIQPIEDLRHAQGGFRPVQDDYDSIIERILQCHILIFATPIYWFGMSGTLKLFIDRWSQTLRDPRFPDFKQQMSVKQAYVIAVGGDNPKIKGLPLIQQFEHIFHFMGMSFKGYVLGEGNRPGDILRDHQALSAASRLLKRSDAI | soluble
MSFFDKVKGAINSGRDELTRQVGRFKNKKFMQGTVAVCARIAVSSDGVSSEEKQKMMGFLRSSEELKVFDTNEVIEFFNKLVSSFDFDVEIGKGETMKYILALKDQPEAAQLALRVGIAVAKSDGNFDQDEKLASREIAIALGFDPAEFGL | not soluble
MPHFTKRPAQPQAALAEAAGLRWLAEASSAVAQVVSADAEQITTVGVETQLPTPDAAFKAGEELARIHLAGAPAFGCPPAGWAGLNYIGTQGQACLSTPTWGVFYSQQRVLPFARRARRRNHLTEHALWVVEAACDLISELPDDVPPARIHGDLWFGNLLFGTDGPVFIDPAAHGGHPETDLAMLDVFGAPYLDEIREGYLSINPLPDGWRERTPMHQLHPLAVHAASHGPSYGVELLHAAKATLKLLDLEHHHHHH | not soluble
MYTHNSSDSIDCNIQSLYRGPQPGRYVRPTGKAVKQVKMEPYSPYSWGDKPYHSLNYYLKQTFGEKIYKLALDGAMTCPNRDGTLGTGGCIFCSGGGSGDFAEPQHASVTEQIEAAKARVSAKIKNGRYIAYFQSYTNTYAPVDYLEALFREAVSHPDIAALSIGTRPDCLPPQVIRLLKEINKEKPVWIELGLQTIHESTAELIRRGYELPCFIDAVRRLKEAGLTVIVHVILGLPGETEDMMLETIRFLANHTPPVDGIKLQLLHVLKGTKLAALYEAAPFPVMTMEEYIDLILKCIRLLPPHIVIHRLSGDGPKKLLIAPEWSGNKRLFLNSLTRALRETGAYQGEWHRPRQP | not soluble
MAHHHHHHMLHLHRCAAQGDWLFLKNLHLVLDWASVLEKELCAMPIPSAEFRLIITTEPHDSFPVVLLRMSAKVTIEAPPGMKQNLLQSYTTWDEAFLQGKTKTTSQVLFGLAWFHALLQERRGYIPQGWVKFYEFSSADLKSAADVLCTLSRDKMDWTTVRGLLQECIYGGRLENSHDERVLERLISRIFNDETLVSCDRRLYDDMRVPATNVHRAVVQFIREHLPDADSPSILSLPDNADRAVKEQFALKLTEDLHTVSHLAQVCVSATEAWRTLLAPVLELWKNSALEPEGNAATVSPGETKEDPMSIFFMRELELLVGIVSNLTETFYDLRCVVEGTLIPSPELREEGTELIGGRVPPRWLDLMDGPKDVKLWFALLRRRRDTMMEYAKRPFSPSTPFDLIDFLRPQTFLNALRLYTVRVSNEALVELMLVATPVGRTADRLGVGFTLKGKSIHLQGALLDAQGILSLPSASSPSSTPLSCDVWAAWMSKHNTEGLARIPIYTNAGRTAAIMDLFLSCDSDMAEKLLLGGVAAFLMSV | not soluble
GMSAPVTLINPFKVPADKLEAAIEYWEAHRDFMAQQPGYLSTQLHQSIDEGATYQLINVAIWQSEADFYQAAQKMRQALGHVQVEGLCGNPALYRVIRT | soluble
SPPPKAGLPLQQELASGSALVTDQNTGKVLYSRNPDLVVPIASITKLMTAMVVLDSKLPLDEVLPIAISETSEMRGVFSRVRVGSQISRRDMLLLALMSSENRAAASLAQNYPGGKNAFVKAMNAKAHALGMKNTRYVEPTGLSLHNVSTARDLTRLLVASRQYPLLSQWSTTPEKTVAFRHPNYTLGFRNTNHLINNKTWNIQLTKTGFTNEAGHCLVMRTTINRSPVNLVVLDAFGKYTHFADATRLRRWLETGQVTAIPAAAKAYRLQRDRERGLGQPVAQAVR | soluble
MGIDYNRWWHLKDETLGEELKGYIKMIEEDYLVYSGTTSQLHVSKLSNGSVNSIVNEILEQQGSWSIIYYNQKLKKLFIGRDVFGRQSLVFNFESMIFGCRTKPETSGKWIEIPFGQVTVFSLDSTDPVIYSYLDEYPENVLDGYFSGSDISRIVVNKKHGLLNVSRSTGGEIDSFNTKDLFQKVIDATKILLKNYHESHVAVCLSGGVDSTFVAHVVHSSVPENMQIDLINVAFGNSEKECEQAPDRKRARKALESFRTAYPTRQFRLILVNVDSQTLEVNRKESISDAAQPASSVLDDSLSCVLWFAVRAEGVDSENQQSVRSPATTCLLGSGADELLAGYARHRTRFEKEQIPENVAEECENELRRLGSRNGGRDARVAAQLGKTILSPLLEDTVVTWLNALPVDSKWDLSLPRGVGEKQLLRETVKMLGSPYDAPKQAMQFGSRMAKMSNAGDNSIKGSDKSPHLLKTDVN | not soluble
MGSDKIHHHHHHMTEIYEKYAHAAERMLHFVETRTTDQASSTMRVPVADYLDQGRFDLEIDRIFKRLPLMLALTIELPEVNDYKAMDVMGLPVLITRGRDGKARAFLNVCKHRAMHLAKEGKGNCKAFACQYHGWTYANDGKLMGIAEASTFGDVDRSTLNMTELPCDEAAGLIFVILTPGLPINAVEWMGGMYEDFAALKLETWYYHKSKAMKGANWKVAYDGYLEGYHFQAAHTNTVATRSPSNRASYEGFGPHIRLGFPQNTITRLHELPRDEWGRQENKGYDFIRMLFPNMSFFLAPEMGQLAQLFPGPQANQNTTVMNYIFPVKPETEEGLAALDQMCDFFFDVVEEEDYFLGLKVQNGLESGAMTHQTFGRNEPGNQFFHKWVAYYLDESGQTPMPVMKE | not soluble
MKLFRVVKRGYYISYAILDNSTIIRLDEDPIKALMRYSENKEVLGDRVTGIDYQSLLKSFQINDIRITKPIDPPEVWGSGISYEMARERYSEENVAKILGKTIYEKVYDAVRPEIFFKATPNRCVGHGEAIAVRSDSEWTLPEPELAVVLDSNGKILGYTIMDDVSARDLEAENPLYLPQSKIYAGCCAFGPVIVTSDEIKNPYSLDITLKIVREGRVFFEGSVNTNKMRRKIEEQIQYLIRDNPIPDGTILTTGTAIVPGRDKGLKDEDIVEITISNIGTLITPVKKRRKIT | soluble
LFQKLHQSLQVGEKEEDMYELLISSSMTTVMADAAWLEIRDNKGGLKAFQNSNIDEYDVFEIKKALRKNQVNISSEPQYIKDILSYPHTEKIKHLDYKSFLLIPLTSNNQLIGTLVLLKNLNDGFDKEMVDIIFTFVSQASISIKNFRLMSDAIQTERYQEELKIAKD | not soluble
MAFANLRKVLISDSLDPCCRKILQDGGLQVVEKQNLSKEELIAELQDCEGLIVRSATKVTADVINAAEKLQVVGRAGTGVDNVDLEAATRKGILVMNTPNGNSLSAAELTCGMIMCLARQIPQATASMKDGKWERKKFMGTELNGKTLGILGLGRIGREVATRMQSFGMKTIGYDPIISPEVSASFGVQQLPLEEIWPLCDFITVHTPLLPSTTGLLNDNTFAQCKKGVRVVNCARGGIVDEGALLRALQSGQCAGAALDVFTEEPPRDRALVDHENVISCPHLGASTKEAQSRCGEEIAVQFVDMVKGKSLTGVVNAQALTSAFSPHTKPWIGLAEALGTLMRAWAGSPKGTIQVITQGTSLKNAGNCLSPAVIVGLLKEASKQADVNLVNAKLLVKEAGLNVTTSHSPAAPGEQGFGECLLAVALAGAPYQAVGLVQGTTPVLQGLNGAVFRPEVPLRRDLPLLLFRTQTSDPAMLPTMIGLLAEAGVRLLSYQTSLVSDGETWHVMGISSLLPSLEAWKQHVTEAFQFHF | soluble
MGSDKIHHHHHHMNRIAEEVGLQKASVYHHYAEKDTLLLALVDYVVEELRYRIVQPDDEDPRQQLRRFIDEVVFGHHAGPDATALSPPTDGTIRAFIQIRAQAVHDDDYREQITTIDRIQQEHIAEIIQRGVDAGEFRDVDPTQVASFISTLLTGVFTRRVTMTTDLTPVREATHAYLEAVLVA | not soluble
MGKSIPVKTGLRGASAAVAGFIKSSKPIRPISSMDSSDKDSSSTTTTSETTRRFVPLSSVVSDCAKRWFKDTLEEAKAGNITMQVLLGQMYYSGYGVPKDARKVSSLFPPFQSLLFQVLGYNASDSDSESD | not soluble
MDPAKNEYGMGSTLTTLAYEKFAKAAKYNTQQNDLAAPTAQLDIAVSLSGFKEGDSNYPINPILKLTNNSTQTIPGGTRIEFLVPTSTSDTITDQSGMGLKVVESGGNQNSDGIAGEKDFHKAAFTLPTWKAWAPGSDVEVAMTYYLPAAGVPSGIRIISGTQTAGLKAEFPTLPEAVLEHHHHHH | soluble
GPGSMADVADPSSELINELRALVVSGSGLVPLDERKVHTVVENMTDAFRHLESISRNPFADPSQPYYSGAMRFYKAKCLRDKRCVVAYLLWRQSQITKSWWEARDNTISNMLAPCERTFLQDYNDVMVEYMTSFAVPLDLRSFTWRPPSTQQLEVRGLVNHVFVSSITGAVINLYKGKQILLGFEEAESLIQQGVVELVE | not soluble
GKITFYEDRGFQGHCYESSSDCPNLQPYFSRCNSIRVDSGCWMLYERPNYQGHQYFLRRGDYPDYQQWMGFNDSIRSCRLIPQHTGTFRMRIYERDDFRGQMSEITDDCPSLQDRFHLTEVHSLNVLEGSWVLYEMPSYRGRQYLLRPGEYRRYLDWGAMNAKVGSLRRVMDFY | soluble
MQDLIKQYNTTLRQLREAQKDAKEEDVKVLTDMISDITYSLEWMKKARRPGNRRGVERLAAYQRERACDPLLMQRYFRSMDDNLYEWDNHQQEHSIGEWDKVRLEDALSLLTEREKEVYLMSRGYCLTYREIARYLDITCSTVQSMIERAEKKIARQVNESLFCNCG | not soluble
